Experimental data: patent publication US20140289906A1, “Compositions Having Dicamba Decarboxylase Activity and Methods of Use” (priority 2013, published 2014)

Assay: 14C assay: 14CO2 capture from [14C]-carboxyl-labeled dicamba with IPTG-induced recombinant E. coli cells
Conditions: for Dicamba Decarboxylase Activity: IPTG-induced recombinant E. coli cells, 14CO2 from [14C]-carboxyl-labeled dicamba; for Enzymatic Detection level: dicamba decarboxylation activity

| Molecule | Dicamba Decarboxylase Activity | Enzymatic Detection level |
| --- | --- | --- |
| 68 (protein, listed as Hoeflea phototrophica) MAIIDAHTHTLCPAVNEKVAGTIKPDSVPYQRDMSPESKEQDHTQFPELKIMFNQVERRLADMARMGIDRQVIAPAPGQQHYWAEPKLLAEISALQNDHVAELVARAPDRFAGIGTLPMTDPDAAVAEITRATRELGLRVFQIDSRVMERELSDASLDPIYAALEAAGAGLMIHPLGFSNGERLTPFFMVNSVAQPLEELLAFNHLVFGGVLDRFPKLKVYIAHGGGFAPFYIGRFDHAWKVRPEVNRLTPSAPSTYLRRIYFDTCVYRTDHIETLVRTVGADRVMLGSDYPFDMGDTDPLGLLNACQGLSDDEKATISSKVAIDFFGLET | No | No |
| 62 (protein, Bacillus thuringiensis serovar pulsiensis) MAVGGKNFRDVTDQVWCPKKRIEDMDREGVDIQVLSPIPVTFSYWAKPEEAESMARIQNDFIAETVLAYPDRFVGLGTVPMQDGETAIREMERCITELNLHGIEIGTNVNGKNLDDPSFIEFFRMAEKWQVPIFIHPWETLGRDRMPHHNFMYTVGMPSETALAAATLIWSGIMEKFPRLKVCFAHGGGSFPYILPRLDQGWKVWPHLRLTTHPPSYYAKKFYFDSLNYDPINLKYMIERFGHEKIFMGSDYPFLLREVDPGKVIDETASLSEEQKAAMLGGNAAEFLNIDIKKRGVAYAESTNT | No | No |
| 69 (protein, listed as Microbacterium testaceum) MATSTEGQDVTDVHAHLLMPGLHAEVERRVPDEVQAAADLELRRNGLASLQASGRMIGERFPRLTDVRARLAAMDEQGVDRQWVSPSPNHFYPWANEGLATWASGEANRLIAEHVALAPDRLVGLGVVPLQHPHLVVDALDDAVLGRGLAGVEISSFAGDVELSDERLESFWARAAELRAVVFLHPFGCSLDERLDRFYLSNTVGQPTENAVALSHLIFSGVLDRHPGLRLIAAHGGGYLPTAIGRSDRAWRVRPEARGCAHAPSTYLSKLWFDTVVHDERALRWLVEAAGADRVLLGSDFPFDMGLDDPVAFVRGAGLQDAEVSGILGGNAAELLRTRVHA | No | No |
| 70 (protein, listed as Alicyclobacillus acidocaldarius) MAIEPNRAADVHTHFLPTEVLEFLKREPRIQVDLERRAPDKEPFLTVEGRWSFELKRMFVDFEAFASAYRQAGIGLALVSPLPQLFVYHLPAEMGAQVAEVYNDALRDVLAPHRERFRPLATLPLADPTAAARELERRMDEGFVGAIVGPGVGEALIGDEAFWPLWEVADARRAVLFLHPLLHADPRAARLMLPNLVGVPWETTLAAAHLVLSGLLDRYPGARVLLAHGGGFLPYQIGRIEQGYDVWPQVRGRLQDRPTAYLRRMFYDNVLWSDAALRCLIDVVGADRVLAGSDFPFDLSAWPPRPGADVSVLAGGSGREGRLS | Low | Low |
| 64 (protein, listed as Achromobacter piechaudii) MAIQKIDMHAHFFPPITRQEAAALDPVNAPWLRPDADGATGQIMAGEREFRPVDATLWDPALRIEQMDRHGVDVQILCATPIMFGYTYPARPAADWAARMNDLALEHCAYAPSRLKALAQVPLQDLELACQEASRARAAGHLGVQIGNHVGPRDLDDETLVQFLIHCANNDIPVLVHPWDMMTDGRMKKWMLPWLVSMPAETQLGILSLILSGAFERIPRSLKLCFAHGGGSFAYLLGRVDNAWRHRDIIRQDCPQLPSSYTDRFYTDSAVFDPRSLRLLIDVMGEDRVLLGSDYPYPLGEQEVGRLVAHAELVPEVQQKILFRNTMTFFGLQPGLQPGLQS | Low | Low |
